The values below come from the nanobody polyreactivity screen of Harvey et al. (2022).

A short description of this data set: yeast display, Sf9 membrane polyspecificity reagent, FACS + sequencing; frameworks hold sequencing errors. The essentials:
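Galactose-induced (36–48 hours) yeast carrying a synthetic nanobody display library were exposed to 10% biotinylated, detergent-solubilized Sf9 membrane reagent at 4 °C for 1 hour. FACS followed streptavidin microbead enrichment, using low and high (top ~1%) gates for expression (anti-HA) and reagent binding (streptavidin). Colony PCR, MiSeq 2 × 250 sequencing and CDR-length filtering followed. Labels for polyreactivity reflect the gate of origin.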
Take “QVQLVESGGGLVQAGGSLRLSCAASGSIFHYYAMGWYRQAPGKERELVAAISWSGGRTNYADSVKGRFTISRDNAKNTVYLQMNSLKPEDTAVYYCAAAERSYSGGGKIGKYYWGQGTQVTVSS”: the “polyreactivity (PSR sort gate)” value is “high polyreactivity”. For “QVQLVESGGGLVQAGGSLRLSCAASGSIFHYYAMGWYRQAPGKVRELVAAISSVGSTYYADSVKGRFTISRDYAKNTVYLQMNSLKPEDTAVYYCAAEAYAKRYVDRYSWYYYWGQGTQVTVSS”, the “polyreactivity (PSR sort gate)” value is “high polyreactivity”.

As to “QVQLVESGGGLVQAGGSLRLSCAASGSIFIANAMGWYRQAPGKERELVAAISSSDSSTYYADSVKGRFTISRDNAKNTVYLQMNSLKPEDTAVYYCAATYWYWYREGYYWGQGTQVTVSS”, the “polyreactivity (PSR sort gate)” value is “high polyreactivity”. The value for “QVQLVESGGGLVQAGGSLRLSCAASGSIFIAYTMGWYRQAPGKERELVAAISQSGGGTHYADSVKGRFTISRDNAKNTVYLQMNSLKPEDTAVYYCAADRPATSDYTGYDYWGQGTQVTVSS” was “low polyreactivity”; that for “QVQLVESGGGLVQAGGSLRLSCAASGSIFIDNAMGWDRQAPGKEREFVAAISKSGTSTYYADSVKGRFTISRDNAKNTVYLQMNSLKPEDTAVYYCAVRRPRPYSNYYYWGQGTQVTVSS” was “high polyreactivity”; that for “QVQLVESGGGLVQAGGSLRLSCAASGSIFIDNAMGWYRQAPGKERELVAAITVRGASTNYADSVKGRFTISRDIAKNTVYLQMNSLKPEDTAVYYCNAVGLRSPWHQDFLIRYDYWGQGTQVTVSS” was “low polyreactivity”. The value for “QVQLVESGGGLVQAGGSLRLSCAASGSIFIGSVMGWYRQAPGKERELVADITWSGGSTYYADSVKGRFTISRANAKNTVYLQMNSLKPEDTAVYYCAARTFVIGDYDYWYALDSWGQGTQVTVSS” was “low polyreactivity”; that for “QVQLVESGGGLVQAGGSLRLSCAASGSIFIGYAMGWYRQAPGKERELVASIRNGGSTNYADSVKGRFTISRDNAKNTVYLQMNSLKPEDTAVYYCAGRYPVFLVSFGFDYWGQGTQVTVSS” was “low polyreactivity”; that for “QVQLVESGGGLVQAGGSLRLSCAASGSIFIIYAMGRYRQAPGKERELVAAIRGRGGSTYYADSVKGRFTISRDKAKNTVYLEMNSLNPEDSAVYYCAASVDRGYNYWGEGTQVTVSS” was “high polyreactivity”. The value for “QVQLVESGGGLVQAGGSLRLSCAASGSIFILYAMGWYRQAPGKERELVAAISSTGTTYYADSVKGRFTISRDNAKNTVYLQMNSLKPEDSAVYYCAADIYPDWIYLLYGYWGQGTQVTVSS” was “low polyreactivity”; that for “QVQLVESGGGLVQAGGSLRLSCAASGSIFILYMGWYRQAPGKERELVATISSGGSTNYADSVKGRFTISRDNAKNTVYLQMNSLKPEDTAVYYCNARGSERVDTYSLYDYWGQGTQVTVSS” was “low polyreactivity”; that for “QVQLVESGGGLVQAGGSLRLSCAASGSIFIPNAMGWYRQAPGKERELVAAISLSDTTTYYADSVKGRFTISRDNAKNTVYLQMNSLKPEDTAVYYCNKLTYGRVWDHHYDYWGQGTQVTVSS” was “low polyreactivity”. Consider “QVQLVESGGGLVQAGGSLRLSCAASGSIFIPNAMGWYRQAPGTERELVAAISLSDTTTYYADSVKGRFTISRDNAKNTVYLQMNSLKPEDTAVYYCAADYWFYPTSPDMDYWGQGTQVTVSS”, for which the “polyreactivity (PSR sort gate)” value is “low polyreactivity”. To “QVQLVESGGGLVQAGGSLRLSCAASGSIFIPYTMGWYRQEPGKARELVAAITKRGGSTYYADSVKGRFTISRDNAKNSVYLQMNSLKPEDTAVYYCNAIKYDPGRWAEYGYWGQGTQVTVSS” belongs “high polyreactivity”. The value for “QVQLVESGGGLVQAGGSLRLSCAASGSIFIQYAMGWYRQAPGKERELVAAINSSGGRTYYADSVKGRFTISRDNAKNTVYLQMNRLKPEDTAVYYCAADHGSSFDWGQGTQVTVSS” was “low polyreactivity”; that for “QVQLVESGGGLVQAGGSLRLSCAASGSIFITYAMGWYRQAPGKDRELVATITSRSGGTYYADSVKGRFTISRDNAKNTVYLQMNSLKQEDTAVYYCNAVYTYPVFHGMGYWGQGTQVTVSS” was “high polyreactivity”. The value for “QVQLVESGGGLVQAGGSLRLSCAASGSIFIVNAMGWYRQAPGKERELVAAITWSGGNTYYADSVKGRFTISRDNAKNTVYLQMNSLKPEDTAVYYCNSYWRGAFDYWGQGTQVTVSS” was “high polyreactivity”.

For “QVQLVESGGGLVQAGGSLRLSCAASGSIFIVYAMGWYRQAPGKERELVATITSGGSTNYADSVKGRFTISRDNAKNTVYLQMNSLKPEDTAVYYCAAESYWGSGVVPGYDYWGQGTQVTVSS”, the “polyreactivity (PSR sort gate)” value was “low polyreactivity”. To “QVQLVESGGGLVQAGGSLRLSCAASGSIFIYNAMGWYRQAPGKERELVASITYRGGSTYYADSVKGRFTISRDKAKNTVYLQMNSLKPEDTAVYYCNAPQYFSYSWPYPREYDYWGQGTQVTVSS” belongs “high polyreactivity”; to “QVQLVESGGGLVQAGGSLRLSCAASGSIFIYNVMGWYRPAPGKERELVATSRGSGGSTYYADSVKGRFTISRDTAKNTVYLHMNSLKPEDTAVYFCCRRDYPYQWGRAYNYWGQGTQVTVSS”, “high polyreactivity”. The value for “QVQLVESGGGLVQAGGSLRLSCAASGSIFIYYAMGWYRQAPGKERELVAAITWRSGSTYYADSVKGRFTISRDNAKNTVYFQRNSLKPEDNAVNYCAAYAWTATDSARPYGYDYWGQGTQVTVSS” was “low polyreactivity”; that for “QVQLVESGGGLVQAGGSLRLSCAASGSIFKAYAMGWYRQAPGKERELVAAISTSDGSTYYADSVKGRFTISRDNAKNNVYLLMNSLKPEDTAVYYCATEYDYWDDSYDYWGQGTQVTVSS” was “low polyreactivity”; that for “QVQLVESGGGLVQAGGSLRLSCAASGSIFKAYAMGWYSQAPGKERELVAAITWSGGSTYYADSVKGRFTISRDNAKYTVYLQMNSLKPEDTAVYYCAADRLEGYYEDDATGFDYWGQGTQVTVSS” was “low polyreactivity”.

In the case of “QVQLVESGGGLVQAGGSLRLSCAASGSIFKCNAMGWYRQAPGKERELVASITRSGGSTYYADSVKGRFTISRDNAKNTVYLQMNSLKPEDTAVYYCARSYGWYRWAGYDYWGQGTQVTVSS”, the “polyreactivity (PSR sort gate)” value is “high polyreactivity”.

As to “QVQLVESGGGLVQAGGSLRLSCAASGSIFKFYAMGWYRQAPGKEREMVAVITYIGGSTYYADSVKGRFTISRDNAKNTVYLQMNSLKPEDTAVYYCNKDGAFHWVGSDPVYLFEYWGQGTQVTVSS”, the “polyreactivity (PSR sort gate)” value is on record as “low polyreactivity”. The value for “QVQLVESGGGLVQAGGSLRLSCAASGSIFKGNAMGWYRQAPGKERDLVAAISRSGGSTYYADSVKGRFTISRDNAKNTVYLQMNSLKPEDTAVYYCNAVRRNTVRSKGRYDYWGQGTQVTVSS” was “high polyreactivity”.

Turning to “QVQLVESGGGLVQAGGSLRLSCAASGSIFKINAMGWYRQAPGKEREWVAAITRSGGSTYYADSVKGRFTISLDNAKNTVYLQMNSLKPEDTAVYYCNASTSRSTSLSSRFYYWGQGTQVTVSS”, the “polyreactivity (PSR sort gate)” value is given as “high polyreactivity”. The value for “QVQLVESGGGLVQAGGSLRLSCAASGSIFKINTMGWYRQAPGKERELVAAISKRGGSTYYADSVKGRFTISRDNAKNTVYLQMNSLKTEDTAVYYCAARQFYKYYYWGQGTQVTVSS” was “high polyreactivity”; that for “QVQLVESGGGLVQAGGSLRLSCAASGSIFKPYAMGWYRQAPGKERELVAVISWRGGSTYYADSVKGRFTISRDYAKNTVYFQMNSLKPEDTAVYYCAARRYRYFDGTVPLDYWGQGTQVSVSS” was “high polyreactivity”. To “QVQLVESGGGLVQAGGSLRLSCAASGSIFKRNAMVSYRQAPGKERELVASISSGGSTHYADSVKGRFTISRDNAKNTVYLQMNSLTPEDTAVYYCAATSIRWSVCSFRRDYWGQGTQVTVSS” belongs “low polyreactivity”; to “QVQLVESGGGLVQAGGSLRLSCAASGSIFKRNDMGWYRQAPGKERELVAAITWSGGSTYYADSVKGRFTISRDNAKNTVYLQMNSLKPEDTAVYYCNAARDDWYIIKYDYWGQGTQVTVSS”, “low polyreactivity”. Regarding “QVQLVESGGGLVQAGGSLRLSCAASGSIFKRNDMGWYRQAPGKERELVASISWGGTSTYYADSVKGRLTISRDLAKNTVYLKMYSLKPEDTAVYYCAARGLYTYKTYDDWGQGTLVTVSS”, the “polyreactivity (PSR sort gate)” value is listed as “low polyreactivity”. The value for “QVQLVESGGGLVQAGGSLRLSCAASGSIFKRYAMGWDRQAPGKERELVASISSRGSSTNYADSVKGRFTISRDNAKNTVYLQMNSLKPEDTAVYYCAAEVYRGKYWSTYRGGDYWGQGTQVTVSS” was “high polyreactivity”. The value for “QVQLVESGGGLVQAGGSLRLSCAASGSIFKTNARGLYRQAPGTEREFVAAISWSGGSTYADSVKGRFTISRDTAKNTVYLQMNSLKPEDTAVYYCAAVDYYYYGVYSSWYDYWGQGTQVTVSS” was “low polyreactivity”. To “QVQLVESGGGLVQAGGSLRLSCAASGSIFKTYAMGWYRQAPGKERELVAAISRSTSRTYYADSVKGRFTISRDNAKNTVYLQMNSLKPEDTAVYYCAAHRSTRGTKLYYWGQGTQVTVSS” belongs “high polyreactivity”; to “QVQLVESGGGLVQAGGSLRLSCAASGSIFKVYAMGWYRQAPGKERELVAAITGGGRTYYADSVKGRFTISRDNAKNTVYLQMNSLKPEDTAVYYCNAVRGGYHVRYDYWGQGTQVTVSS”, “high polyreactivity”.

On to “QVQLVESGGGLVQAGGSLRLSCAASGSIFKVYAMGWYRQAPGKEREWVAAITWRGGSTYYADSVKGRFTISRDNAKNTVYLQMKSLKPEDTAVYYCGTEYCWKYDYWGQGTQVTVSS”, for which the “polyreactivity (PSR sort gate)” value is recorded as “low polyreactivity”. To “QVQLVESGGGLVQAGGSLRLSCAASGSIFKWYAMGWYRQAPGKEREFVAAITNGGGSTYYADSVKGRFTISRDNAKNTVYLQMNSLKPEDTAVYYCAKDGHSYYPWEYDYWGQGTQVTVSS” belongs “low polyreactivity”; to “QVQLVESGGGLVQAGGSLRLSCAASGSIFKWYTMGWYRQAPGKERELVAAITWGGGSTYYADSVKGRFTISRDNEKNTVYLQMNSLKPEDTAVYYCNREGWHYGPYGYWGQGTLVTVSS”, “low polyreactivity”. The value for “QVQLVESGGGLVQAGGSLRLSCAASGSIFKYFTMGWYRHAPGKERELVAYISSGGSTKYADSVKGRFTISRDNAKNTVYLQMNSLKPEDTAVYYCAKRYYYFYPDYDYWGQGTQVTVSS” was “high polyreactivity”.
